The series relates to Escherichia coli TOP10. The series can be described thus: shrunken log2 fold change of peptide-encoding DNA abundance (4.5 h post-induction vs induction); higher = less antimicrobial activity (less host growth inhibition). The following applies: time post-induction: 4.5 h; library: site-saturation at positions 5, 18, 19, 20.

The text below walks through data of the supplement of paper PMC9112550, “Optimization of the antimicrobial peptide Bac7 by deep mutational scanning” (BMC Biology, 2022).
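Further: peptides expressed intracellularly from a pBAD plasmid library in pooled LB shake-flask culture, induced with 0.3% L-arabinose, DNA abundance read by NGS, three biological replicates, DESeq2 with apeglm shrinkage.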

RRIRYRPPRLPRPRPRPWCRPRP: the “shrunken log2 fold change” value was -0.414.
The same measure for RRIRKRPPRLPRPRPRPSGWPRP: -0.146.
The value for RRIRQRPPRLPRPRPRPQHGPRP was -0.000236; that for RRIRNRPPRLPRPRPRPICIPRP was -0.531.
On to RRIRCRPPRLPRPRPRPQFHPRP, for which the “shrunken log2 fold change” value is -0.635.
The same measure for RRIRLRPPRLPRPRPRPHAVPRP: 0.0578; for RRIRIRPPRLPRPRPRPMICPRP: -0.224.
The same measure for RRIRKRPPRLPRPRPRPLNMPRP: 0.0134; for RRIRSRPPRLPRPRPRPQYGPRP: -0.118; for RRIRRRPPRLPRPRPRPHIPPRP: -0.126.
The value for RRIRERPPRLPRPRPRPFERPRP was 0.00782; that for RRIRTRPPRLPRPRPRPRPYPRP was -0.223; that for RRIRKRPPRLPRPRPRPSGSPRP was -0.0809.
Consider RRIRLRPPRLPRPRPRPHDHPRP, for which the “shrunken log2 fold change” value is 0.0691.
The value for RRIRFRPPRLPRPRPRPSKPPRP was -0.0327; that for RRIRVRPPRLPRPRPRPPRRPRP was 0.491; that for RRIRPRPPRLPRPRPRPEDMPRP was -0.927.
The value for RRIRSRPPRLPRPRPRPREAPRP was 0.587; that for RRIRHRPPRLPRPRPRPLPYPRP was -0.137; that for RRIRTRPPRLPRPRPRPDINPRP was -0.151.
The same measure for RRIRPRPPRLPRPRPRPLQRPRP: 0.395.
On to RRIRVRPPRLPRPRPRPNWMPRP, for which the “shrunken log2 fold change” value is -0.235.
The same measure for RRIRTRPPRLPRPRPRPWQMPRP: -0.0135; for RRIRMRPPRLPRPRPRPTFTPRP: 0.141.
The value for RRIRARPPRLPRPRPRPGGNPRP was 0.2; that for RRIRPRPPRLPRPRPRPQRTPRP was 0.113.
The value for RRIRQRPPRLPRPRPRPSPEPRP was -0.0086; that for RRIRTRPPRLPRPRPRPNRMPRP was -0.331.
Turning to RRIRSRPPRLPRPRPRPVPDPRP, the “shrunken log2 fold change” value is -0.0298.
The value for RRIRNRPPRLPRPRPRPDWMPRP was -0.0128; that for RRIRYRPPRLPRPRPRPPWLPRP was 1.46; that for RRIRARPPRLPRPRPRPIWLPRP was 0.221.
RRIRDRPPRLPRPRPRPVFAPRP: the “shrunken log2 fold change” value was 0.597.
The same measure for RRIRSRPPRLPRPRPRPIYDPRP: 0.0384; for RRIRPRPPRLPRPRPRPRIWPRP: 0.362.
The value for RRIRVRPPRLPRPRPRPLNEPRP was -0.0647; that for RRIRYRPPRLPRPRPRPLQVPRP was -0.0974; that for RRIRQRPPRLPRPRPRPFFHPRP was -0.532.
Take RRIRTRPPRLPRPRPRPGVEPRP: the “shrunken log2 fold change” value is -0.0469.
The value for RRIRLRPPRLPRPRPRPPFDPRP was 0.312; that for RRIRPRPPRLPRPRPRPDGWPRP was 0.354; that for RRIRRRPPRLPRPRPRPNFFPRP was 0.184.
Consider RRIRPRPPRLPRPRPRPRPRPRP, for which the “shrunken log2 fold change” value came to 0.744.
The same measure for RRIRRRPPRLPRPRPRPSPGPRP: 0.258.
The value for RRIRWRPPRLPRPRPRPQQMPRP was -0.128; that for RRIRYRPPRLPRPRPRPAQLPRP was -0.392; that for RRIRTRPPRLPRPRPRPYREPRP was -0.196.
The value for RRIRMRPPRLPRPRPRPIRWPRP was 0.632; that for RRIRLRPPRLPRPRPRPAQRPRP was 0.172.
With RRIRLRPPRLPRPRPRPFADPRP, the “shrunken log2 fold change” value is 0.0979.
